B1: H4H8076P (antibody, human IgG4, V domains shown)
VH: QVQLQQSGPGLVKPSQTLSLTCAISGDSVSSNSVAWNWIRQSPSRGLEWLGRTYYRSNWYNTYAVSVKSRITIDPDTSKNQFSLQLNSVTPEDTALYYCARGHRYSGSYFDYWGQGTLVTVSS
VL: DIQMTQSPSSLSASVGDRVTITCRASQNINSYFNWYQQKPGKAPKLLIYAASSLQSGVPSRFSGGGSGTDFTLTISSLQPEDFATYYCQQTYTIPWTFGQGTKVEIK
B2: H4H8083P (antibody, human IgG4, V domains shown)
VH: QVQLVESGGGVVQPGRSLRLSCAASGFTFNNYVMHWVRQAPGKGLEWVALIWYDGSNKYYADSVKGRFTISRDNSKNALNLQMNSLRAEDTAVYFCARVSIAARNYYYGGLDVWGQGTTVTVSS
VL: EIVLTQSPGTLSLSPGERATLSCRASQSVSSTYLAWYQQKPGQAPRLLIYGASSRATGIPDRFSGSGSGTDFTLTISRLEPEDFAVYYCQHYGGSPLTFGGGTKVEIK
B3: H4H8066P (antibody, human IgG4, V domains shown)
VH: EVQLVESGGGLVQPGGSLRLSCEASGFTFSRYAMTWVRQAPGKGLEWVSGISGSGGSTFYVDSLQGRFTLSRDNSKHTLFLQMNSLRAEDTAIYYCAKENTYGHFDYWGQGTLVTVSS
VL: DIQLTQSPSFLSASVGDRVTITCWASQDISTYLAWYQQKPGKAPQVLIYAASSLQYGVPSRFSGSGSGTEFTLTITSLQPEDFATYYCQQLIGYPYIFGQGTKLEIK
B4: H4H8085P (antibody, human IgG4, V domains shown)
VH: QVQLVESGGGVVQPGRSLRLSCTASGFTFDNYGMHWVRQAPGKGLEWVAVISYDGSNTFYADSVKGRFTISRDNSKNALYLQMNSLRAEDTAVYYCAKDLEFDILIGYPFDSWGRGTLVTVSS
VL: DIQLTQSPSFLSASVGDRVTITCWASQDISRYLAWYQQKPGKAPNLLIYAASTLQSGVPSRFSGSGSGTEFTLTINSLQPEDFATYYCQQLFSYPRTFGQGTKVEIK
B5: H4H8060P (antibody, human IgG4, V domains shown)
VH: QVTLKESGPVLVKPTETLTLTCTVSGFSLSSARMGVSWIRQPPGKALEWLAHIFSTDEKSYSTSLKSRLSISKDTSLSQVVLIMTNMDPVDTATYYCARRTTMAPYYYYYGMDVWGHGTTVTVSS
VL: AIQMTQSPASLSASVGDRVTITCRASQGIRNDLGWYQQKPGKAPKLLISAASSLQSGVPSRFSGSGSGTDFTLTISSLQPEDFATYYCLQDYKYPWTFGQGTKVEIK
B6: H4H8079P (antibody, human IgG4, V domains shown)
VH: EVQLVESGGGLVKPGGSLRLSCAASGFTFSNAWMSWVRQAPGKGLEWVGRIKSKTDGGTSEYAAPVKGRFTISRDDSKNTLFLQMNSLKSEDAAVYYCTTGRSWSDYFDFWGQGTLVTVSS
VL: not shown
B7: H4H8045P (antibody, human IgG4, V domains shown)
VH: EVQLVESGGALVQPGGSLRLSCAASGFTFSNYAMTWVRQAPGMGLEWVSGISSSGASTFYADSVKGRFTISRDNSKNTLYLQMNSLRAEDTAVYYCAKEDYWGWFDYWGQGTLVTVSS
VL: DIQLTQSPSFLSASVGDRVTITCWASQDVSSYLAWYQQEPGKAPKVLIYDASTLQSGVPSRFSGSGSGTEFTLTISSLQPEDFAPYYCQQLNSYPYTFGQGTKLEIK
B8: H4H8071P (antibody, human IgG4, V domains shown)
VH: EVQLVESGGGLVQPGGSLRLSCAASGFTFTTYFMSWVRQAPGKGLEWVSGISGSGTSTFYVDSMKGRFTISRDNSKNTLYLQMNSLRVEDTAVYFCAKENTYGHFDFWGQGTLVTVSS
VL: B7 VL with V29I, Y32H, E39K, F62I, P85A, N92D, S93G
B9: H4H8046P (antibody, human IgG4, V domains shown)
VH: QVQLVQSRDEVKKPGASVKVSCKASGYTFTTYGISWVRQAPGQGLEWMGWINTYNGDTNYAQKVQDRVIMTTDTSTSTAYMELRSLRSDDTAVYFCAGARPLGGRRAFDIWGQGTMVTVSS
VL: DIQMTQSPSSLSASVGDRVTITCRASQGISHYLAWYQQKPGKVPKLLIYAASTLQSGVPSRFSGSGSGTDFTLTISSLQPEDVATYYCQKYNSVPWTFGQGTKVEIK
B10: H4H8080P (antibody, human IgG4, V domains shown)
VH: EVQLVESGGGLVQSGGSLRLSCVASGFTFSTYAMTWVRQAPGRGLEWVSAISGSGASTYYADSLKGRFTVSRDNSKNTLYLQMNSLRAEDTAVYYCSKDHRNYDSDYDMDVWGQGTTVTVSS
VL: DIQMTQSPSSLSASVGDRVTITCRASQGIRNYLGWYQQKPGKAPKRLIYTASSLQSGVPSRFRGSGSGTEFTLTISSLQPEDFATYYCLQHNSYPYTFGQGTKLEIK
B11: H2M7086N (antibody, mouse IgG2, V domains shown)
VH: QVQLVESGGGVVQPGRSLRLSCVVSGFTFSNYGMHWVRQGPGRGLEWLALIWYDGSDKYYAESVRGRFTISRDNSKNTVYLQMNSLRAEDTAMYYCTRDRIFDYWGQGTLVTVSS
VL: AIQMTQSPSSLSASVGDRVTITCRASQDIRNDLGWYQHNPGKAPNLLIYAASTLQIGVPSRFRGSGSGTDFTLTISSLQPEDFATYYCLQDFDYPLSFGGGTKVEIR
B12: H4H8084P (antibody, human IgG4, V domains shown)
VH: QVQLVESGGGVVQPGRSLRLSCEASGFTFRNYGMHWVRQAPGKGLDWVSTIYYDGSDEYYSDSVKGRFTISRDNSKNTLYLQMNSLRAEDTAVYYCARDPPSFRYFDYWGQGTLVTVSS
VL: DIQMTQSPSTLSASVGDRVTITCRASQSIRSWLTWYQQKPGKAPKVLIYKASTLERGVPSRFSGSGSGTEFTLTISSLQPEDFATYYCHQYSSYSYTFGQGTKLEIK
B13: H4H8056P (antibody, human IgG4, V domains shown)
VH: QVQLVESGGGVVQPGRSLRLSCAASGFTFRNYGMHWVRQAPGKGLEWVAVKRYDGSDEYFVDSVKGRFTISRDNSKNTLFLQMNSLRVDDTAVYYCARETPITGTTLDYWGQGTLVTVSS
VL: DIQMTQSPSSLSASVGDRVTITCRTSQSITNYLNWYQQKPGKAPKLLIYAASRSQSGVPSRFSGSGSGTDFTLTISSLQPEDFATYYCQQSYSTPLTFGGGTKVEIK
B14: H4H8058P (antibody, human IgG4, V domains shown)
VH: QVQLVESGGGVGQPGRSLRLSCVASGFTFRNYGMHWVRQAPGKGLDWVAIIGYDGSKEYNVDSVKGRFTISRDNSKNTLYLQMNSLGAEDTAIYYCARESPITGTTFDYWGQGTLVTVSS
VL: B13 VL with S9P, T25A, T30G, L46I, S54L
B15: H4H8062P (antibody, human IgG4, V domains shown)
VH: EVQLVESGGGLVQPGGSLRLSCSVSGFIFKNYAMRWVRQAPGKGLEWVSGISGSGGITYYADSVRGRVTISRDNSKNTLDLQMTNLRAEDTAVYYCAKAEYSSSGAYFDYWGQGTLVTVSS
VL: DIQMTQSPSSLSASVGDRVTITCRASQSIHNYLNWYLQRPGKAPKLLVYAASSLQSGVPSRFSGRGSGTDFTLTISSLQPEDFATYYCQQSYSAPYSFGQGTKLEIK
B16: H4H8067P (antibody, human IgG4, V domains shown)
VH: QVQLVESGGGVVQPGRSLRLSCVASGFTFSNYGMHWVRQAPGKGLEWVALIWYDGSNKYFADSVKGRFTISRDNSKRMMFLEMNSLRAEDTAIYYCTRDRLFDFWGQGTLVTVSS
VL: AIQMTQSPSSLSASVGDRVSITCRASQDIRHDLGWFHQKPGKAPKLLIYAASTLQSGVPSRFGGSGSGTDFTLTITSLQPEDFGTYYCLQDYNYPATFGQGTRLEIK

Positions count from the first letter of the chain named.

The target of this experiment is human RET on cells (MCF7/SRE-Luc; HEK293/hGFRα3/hRET/SRE-Luc; HEK293/hGFRα1/hRET/SRE-Luc) (human), P07949. The experiment in a line: cell-based or functional assay.
On to B1, for which the MCF7/SRE-Luc % Activation was 3%, the MCF7/SRE-Luc Avg % Blocking came to 74% and the MCF7/SRE-luc Avg. IC50 came out at 55.7 nM.
For the molecule B2, the 293/hGFRα3/hRET SRE-luc % Blocking came out at 81%, the 293/hGFRα3/hRET/SRE-Luc IC50 is 57 nM, the MCF7/SRE-Luc % Activation is 0% and the MCF7/SRE-Luc Avg % Blocking is 68%. In addition, the MCF7/SRE-luc Avg. IC50 was above 100 nM.
The corresponding values for B3 are 93%, 1.5 nM, 0%, 60% and 0.39 nM.
In the case of B4, the 293/hGFRα3/hRET SRE-luc % Blocking is 72%, the 293/hGFRα3/hRET/SRE-Luc IC50 worked out at 127 nM, the MCF7/SRE-Luc % Activation stood at 47% and the MCF7/SRE-Luc Avg % Blocking turned out to be 0%. Moreover, the luciferase activity in MCF7/SRE-Luc, % of the levels observed with GDNF is 50%.
On to B5, for which the MCF7/SRE-Luc % Activation was determined as 0%, the MCF7/SRE-Luc Avg % Blocking is 87% and the MCF7/SRE-luc Avg. IC50 is above 100 nM.
In turn, B6 gave a 293/hGFRα3/hRET SRE-luc % Blocking of 96%; a 293/hGFRα3/hRET/SRE-Luc IC50 of 0.8 nM; an Internalization (% H4H8087P), HEK293/hGFRa1/hRET/SRE-Luc cells, 37 C of 62.8%; an MCF7/SRE-Luc % Activation of 0%. The same molecule returned an MCF7/SRE-Luc Avg % Blocking of 90% and an MCF7/SRE-luc Avg. IC50 of 0.15 nM.
B7: the 293/hGFRα3/hRET SRE-luc % Blocking stood at 96%, the 293/hGFRα3/hRET/SRE-Luc IC50 is 0.42 nM, the MCF7/SRE-Luc % Activation was 0% and the MCF7/SRE-Luc Avg % Blocking stood at 69%. For the same molecule, the MCF7/SRE-luc Avg. IC50 worked out at 0.14 nM.
Consider B8, for which the MCF7/SRE-Luc % Activation was determined as 0%, the MCF7/SRE-Luc Avg % Blocking amounted to 84% and the MCF7/SRE-luc Avg. IC50 stood at 0.45 nM.
B9 displayed a 293/hGFRα3/hRET SRE-luc % Blocking of 91%, a 293/hGFRα3/hRET/SRE-Luc IC50 of 11.8 nM, an MCF7/SRE-Luc % Activation of 5% and an MCF7/SRE-Luc Avg % Blocking of 78%. The same molecule returned an MCF7/SRE-luc Avg. IC50 of 44 nM.
The corresponding values for B10 are 57%, 341 nM, 0%, 41% and above 100 nM.
In the case of B11, the 293/hGFRα3/hRET SRE-luc % Blocking is 98%, the 293/hGFRα3/hRET/SRE-Luc IC50 is 4 nM, the MCF7/SRE-Luc % Activation turned out to be 0% and the MCF7/SRE-Luc Avg % Blocking was determined as 100%. The MCF7/SRE-luc Avg. IC50 came to 2.6 nM.
In the same order, the values of B12 are 94%, 2.1 nM, 0%, 100% and 10.4 nM.
For B13, the MCF7/SRE-Luc % Activation is 0%, the MCF7/SRE-Luc Avg % Blocking stood at 73% and the MCF7/SRE-luc Avg. IC50 amounted to 2 nM.
For the molecule B14, the Internalization (% H4H8087P), HEK293/hGFRa1/hRET/SRE-Luc cells, 37 C is 42%; the MCF7/SRE-Luc % Activation came to 0%; the MCF7/SRE-Luc Avg % Blocking was determined as 85%; the MCF7/SRE-luc Avg. IC50 is 5.4 nM.
In the same order, the values of B15 are 44.9%, 0%, 100% and 5.2 nM.
The molecule B16 showed a 293/hGFRα3/hRET SRE-luc % Blocking of 99%; a 293/hGFRα3/hRET/SRE-Luc IC50 of 4.8 nM; an Internalization (% H4H8087P), HEK293/hGFRa1/hRET/SRE-Luc cells, 37 C of 58.2%; an MCF7/SRE-Luc % Activation of 0%. This molecule also showed an MCF7/SRE-Luc Avg % Blocking of 91% and an MCF7/SRE-luc Avg. IC50 of 3.8 nM.
